assay: soluble on expression in E. coli; label from the status in PepcDB or PDB records

Question: With “MLKIATFNVNSIRSRLHIVIPWLKENKPDILCMQETKVENRKFPEADFHRIGYHVVFSGSKGRNGVAIASLEEPEDVSFGLDSEPKDEDRLIRAKIAGIDVINTYVPQGFKIDSEKYQYKLQWLERLYHYLQKTVDFRSFAVWCGDMNVAPEPIDVHSPDKLKNHVCFHEDARRAYKKILELGFVDVLRKIHPNERIYTFYDYRVKGAIERGLGWRGDAILATPPLAERCVDCYADIKPRLAEKPSDHLPLVAVFDV” as the sequence, how does the “soluble on expression in E. coli” value read?
Answer: soluble

Question: Which “soluble on expression in E. coli” value does the source give for “MGSDKIHHHHHHETLRAFQRKAYESTEKTNCVCFFIQEALEIAENLEHLATDPNYQKPPLFGVPVSIKESIHVKNLDSTAGYAQKINNPSDANSVSVDQLIRLGAVPFVHTNIPIALLSYGCSNGVYGTTLNPLDNSRVPGGSSGGEAALVSLGGSVLGIGTDVGGSIRTPASFCGLAGFKSSSDRSPQLGKTASIPGRQLLLSVEGPIAKNIDVCVEYLRLKWNDPLLYKKDVYMPPVKFQENLYNSEKPLKIGYYTFDGYQTASPAYQRAVRETVAVLKELGHELVPFEVPQPDHMYSIFCAGATADGGLYLMDSLANDIIPPEADIGFPVAKLPHFIQRLLRKYWHHRRERQIIQELPHDTEEMRQMHEKIEDYRHEFVLAMRAKKLDALVCPAFGCPPPHHGMPNKILGANSYPALYNLIDFAAGTVPVTVQKQEDEVELRKMKTEDSWDRRVVTESKNCIGLPVSVQIATPPYREEMCLRLLKQVEAKIGLYSRTH” here?
Answer: not soluble

Question: For “MGSDKIHHHHHHMGQKVHPRGFRLGLSADWQAKWFNEKNYKEWLLEDEEIRKIIKNKYYHAGISEIYVERPDAERINITVKTARPGIIIGRKGSEITSLREELERKFNRRVVINIEEIKTPELDAQLVAESIASRIEKRASYKVAMKRAIMNAMRKGAQGIKVMVAGRLGGAEIARREWYLRGRLPLQKIKAIIDYGTATAWTKYGTIGIKVWIYKGDADI”, which “soluble on expression in E. coli” value is on record?
Answer: not soluble

Question: Which “soluble on expression in E. coli” value does the source give for “MGSDKIHHHHHHMKVTIIGAAGQIPHFLIPMLQKQTDAELTLFARNATSRLLDYSKPTVRIVDGDASKSGDVKTAITDADVVFMDFDNPEAVKNVIKVMDQLGKKRLIVAGVLGVYDEVAGAFGKWNNMMIGSGYLPHKQAVTELEKSDLDYTYMRMTWLYDQDGNTNYETQKKGQPLIGAQVTRQAVSQYVIDMIKNPELGIRESNGVVEPNTNFAKPSFY” here?
Answer: not soluble

Question: Which “soluble on expression in E. coli” value does the source give for “MTLTQEKRSYMEKLSDENGIISALAFDQRGALKRLMAQYQTQEPTIAQMEELKVLVAEELTPYASSMLLDPEYGLPAAKHLDKNAGLLLAYEKTGYDTTSTKRLPDCLVEWSAKRLKKQGADAVKFLLYYDVDGDEEVNQQKQAYIERIGSECKAEDIPFFLEILAYDETITDAASVEYAKVKPHKVLDAMKVFSDERFGIDVLKVEVPVNMKYVEGFGDGPIVHTQDQAANFFKQQDQATPLPYIYLSAGVSAKLFQDTLVFAKESGANFNGVLCGRATWAGSVKDYIEKGEAAARQWLRTEGFKNIDELNKVLKATATSWKER” here?
Answer: soluble

Question: For “LRRTALNGRFCRLEPLDVDRHAADLFAAYALGDNSDWTWLASTRPESVTATAHWIAGKVNDDVLVPYAVVDLRSEQAVGIVSYMAIEREMGTVEIGHVTWSRRMKNTPLGTEAVWLLLKNGFDHGYRRLEWKCDSMNVASRRAAERLGFSWEGRLRQRLVRKGRTRDSDMLSIIDGEWPARD”, which “soluble on expression in E. coli” value is on record?
Answer: not soluble

Question: With “MRRGGSMGPPSGDPYQSRPSPGGYYYNRSTPGGQPAPSPSHSQQSASSHHPRGVPMSQPIARRSDYRTGSEQMTPRSDHRGPSMGYGNGGSVDQRVDDVTPSYYVEHLATFAVGRQFGLTFPADGIRKLKQMEKNSAIWAQPLILRFRHNAVTVEDDNGELVEQFPLELIEQPTAHVSNDSRETYNNVLLFVVREDRKRMSTPTEMHIFQCIRVSATDVAEDLKNYVQGQFRRVRNGRRTAAPTHLQAQQQQMPFYPPDDASISSETSEMFERDVNTLNRCFDDIERFVARIQSAALAQREIEQQNHRYRTANRRDKKNQQPPDPNGILFMRAQLPLESEFVDILKKFKLSFNLLAKLKNHIHEPNAPELLHFLFTPLAVILEACHWGLGRNVAPTVASPLLSLEARELMQNCLTSHESDIWMSLGEAWRTPPEDWTKPLPPPYRPIFNDGFAPYGVADRAMATPNQIHRGHSAPPEHFRQPPPRERNMVDTLEFDRLTLERERLEFEKAKIMERESRLRHEEKQIEDEKRRMHAEKDLITKETTQPVPPPAAVVTHQPITKRYDPPISISPPPQRNNYSHVKVTVDSDTSPRQQAFIDDIVAKGGKLAVVTYDRGGQNTKELTVHKGEYLEVIFDERNWWECKNMHQRVGYVPHTILSMVPFEQQQYAQQYNVMSSQHNVIQINDGVGKMEVFISKTCNFILITTCNLFCSTTKTAVPDIYRAFVMNDETRQMSGTPCENSRSFLSSNTLSSSPENAPEIPLLENLKFNHNKLYLFHILSPNHHNNSSSTGGYNNGHHQGPGMLPEDAPSYVKERQAQNVYRPPPPPLVSDAGVQVEIRREHVAPPPPPVVIPPPPPPVRTPTMEELLRMQQQQQQKQRKPPVEEPVYQPQPAQRAGLEIWRRNQNPQLIQEVTETVGQHSGDILRPAMQRATRVAINEKSSPEDVTRWLQEKGFSPRVIDLLDGQDGANLFSLSKLHLQQACGRDEGGYLYSQLLVQKKRSGFRTHTGDELKAILNHRRTHVELSNEAAADEPVFTINPIL” as the sequence, how does the “soluble on expression in E. coli” value read?
Answer: not soluble

Question: Which “soluble on expression in E. coli” value does the source give for “MTQQIKYKRVLLKLSGESLMGSDPFGINHDTIVQTVGEIAEVVKMGVQVGIVVGGGNIFRGVSAQAGSMDRATADYMGMMATVMNALALKDAFETLGIKARVQSALSMQQIAETYARPKAIQYLEEGKVVIFAAGTGNPFFTTDTAAALRGAEMNCDVMLKATNVDGVYTADPKKDPSATRYETITFDEALLKNLKVMDATAFALCRERKLNIVVFGIAKEGSLKRVITGEDEGTLVHC” here?
Answer: soluble

Question: Which “soluble on expression in E. coli” value does the source give for “MAGNFWQSSHYLQWILDKQDLLKERQKDLKFLSEEEYWKLQIFFTNVIQALGEHLKLRQQVIATATVYFKRFYARYSLKSIDPVLMAPTCVFLASKVEEFGVVSNTRLIAAATSVLKTRFSYAFPKEFPYRMNHILECEFYLLELMDCCLIVYHPYRPLLQYVQDMGQEDMLLPLAWRIVNDTYRTDLCLLYPPFMIALACLHVACVVQQKDARQWFAELSVDMEKILEIIRVILKLYEQWKNFDERKEMATILSKMPKPKPPPNSEGEQGPNGSQNSSYSQS” here?
Answer: soluble

Question: For “MSYQFTELKEELIIKKIVSLHYFEYMSDFTFPGESHNFWEFLYVDKGELQVTADREKFILRQGQIIFHRPNEFHALAANNVIAPNLVVISFEAGEPCMAFFEHKILTVGESERNLLSQIIAEARETFDGPMDDPYMEVLSRRESIPFGAEQMIKIHLEQFLIQLFRNFSGTLAFGENHKLNGAHAPGKSPALADGNELFSDILDYLDRNIGKSLTVEKICRDNLIGVSQLKKLFRTYQGSGVMECFNQMKINAAKQMIRNQQMNFTQIADALGYTSVHYFSRQFKKLTDMTPTEYRASIMLRAKRPQRKHL”, which “soluble on expression in E. coli” value is on record?
Answer: not soluble

Question: For “SRTPAKGNGADPIRLPVRSGIRESRLEFHYHYSNFLVYGEAGSGKTKSIGKWLLSEYMRLGFAGFIYDFKDTDYTRTAYNLIKRHRYPHKFYYVSFDRPERSYRFNPLKVVRDRTELIQLMEDVLLALLPKKEQQNEWVAGGLGILRGVAFRFWDEFPEHCTLPHILAFIMTASARQLSLFLQQNLVSEMLAGAYLKAEGSEKTQASYLSTLCNNLATISQNEEIAYVLSGDDFDFNLIDPETPKLFAVSNNFSKNSVYAPVISMLMTISARQFSMQNRVPFVYFLDEMTTVNIKNFETLPSVLREYKAAFILLTQSGAKLENLYGKLDRSSVEANFGNMFLGRTKDVEALKYYPLFFGKEEKERRSRSSGKSGASSSSSVTVSSQKEDIYQGKDFADLEPGEFIGSATRANVSYFKVKLEMYDDRNEEPLPDVRVLEPGELGRNFARILEEVRELFPCE”, which “soluble on expression in E. coli” value is on record?
Answer: not soluble

Question: For “MGSDKIHHHHHHMPSGGVLPVGVHATPMSVREEFDEWAASGRDKGMEDRHWHTAKDVLARMPVEDDDTVLDLGTGSGYAVRALRERGVARGYGLDGAPEMAANARTYTDDDDLAYVVGDFGSLPFADDAIDHVFSFEAFYYASDPRETLAEIRRVLKSGGTFYCGVNYYEENVHSHDWQDSISVEMTRWDRATYREAFRGAGLHVAAQDLIADTEIDIPAASEFPHEGFDSRADMVERYRTFGTLLTVGVAP”, which “soluble on expression in E. coli” value is on record?
Answer: not soluble

Question: Which “soluble on expression in E. coli” value does the source give for “MEMRELVGQFVERMQVLRHLVPILPDEQLYVRFESDDETALLLIGKESAARGMENDERKTLTVRGSKEALASLLNGELKLQQLVRLREVHVSGSFRQLLLLESLLHLAKPYRHVG” here?
Answer: not soluble

Question: Which “soluble on expression in E. coli” value does the source give for “MGEFIGNEEFQNFMKATGFIQEFTRRLLERSSKNIIKIPDNLSNVNQLTCLVKQFLREQQDLAVKVEKVQENQKNLSDFVKEKLTNCNCHVQLDVRNLLAKEMKLQDLRQDDGLDFSIKLPSTSSTDFTVSLNQVVDADAQQRFDLELLKMFGAGNIPHFQPPPDLYQHHHIPHTSQQVAQENLAMLANVPKLDDNNAYFDTFSPEKSGKRAKKRAAPSSAHEAQPNNGPYKCRDCEKTFRQKHGLNQHLLTHETNGAFECDGCGKRYSRQESVYRHQRSTPCTKYQNLTTVEHDDTGALF” here?
Answer: not soluble

Question: For “MGSSHHHHHHGKTIFVIVPTNEEQVAFLEALAKQDELNFDWQNPPTEPGQPVVILIPSDMVEWFLEMLKAKGIPFTVYVEEGGSENLYFQGGGGGGAATVTDLKNAIKNELYRIDIGMTDFYSSLSVSPTVQQQYCTAAITSRAAGLSLTMESLSSPYGVLATEYGFLIYKDTFVFGPSIKLIGASAWPNGTLTTDIQSGRHILVPYLTNTVVFVTGVIENEDGRQNILPMMRLMMVDSYLCAHMHMNVANLYRKTFRTAFAELA”, which “soluble on expression in E. coli” value is on record?
Answer: not soluble

Question: With “MDYSEIMVRHGELSTKGKNRMRFINKLKNNIQDVLAPFPAITVRSDRDRTHVSLNGTDYQPIVEALKLVFGVQALSPVYKLEKSVPLLVTAVQDIMTSLYRDGLTFKIATKRSDHAFELDSRELNSLLGGAVFEVLPNIQAQMKHPDVTLKVEIRDEAAYISYEEIKGAGGLPVGTSGKGMLMLSGGIDSPVAGYLALKRGLDIEVVHFASPPYTSPGALAKAQDLTRRLTRFGGNIQFIEVPFTEIQEEIKNKAPEAYLMTLTRRFMMRITDAIREQRKGLVIVNGESLGQVASQTLESMQAINAVTSTPIIRPVVTMDKLEIIEMAQAIDTFDISIQPFEDCCTIFAPDRPKTNPKLGNAEKYEECFDIDGLVQRAVSGIVVTEITPEIVNDEVENLIDALL” as the sequence, how does the “soluble on expression in E. coli” value read?
Answer: not soluble

Question: For “MAHHHHHHMQTPNSECVGPESPKAGIASSCQGCPNASICASMPKGPDPDIELIRQRLSGVKRTVMVISGKGGVGKSTLTKELAFALGQMGLNVALVDLDICGPSLPRLMGVRGEDAHQSAAGIEPVLVDETVSMISMHYLLGDKNEAVLFRGPRKNGVIKMFLKDVIWGDVDIMLIDTPPGTSDEHITVASILQQCGGVTGAILITTPQLVAEADVKREVKFSHKAKLHLLGIVENMSGFVCPNCKESSVIFPRANSQGAGKRLSDEFGVPFWGEVPLDPVLMKACEEGVSLTDIVDGKSPTIEILQSVAAKLVASLEIE”, which “soluble on expression in E. coli” value is on record?
Answer: soluble

Question: With “MGSDKIHHHHHHMEWQAEQAYNHLPPLPLDSKLAELAETLPILKACIPARAALAELKQAGELLPNQGLLINLLPLLEAQGSSEIENIVTTTDKLFQYAQEDSQADPMTKEALRYRTALYQCFTQLSNRPLCVTTALEICSTIKSVQMDVRKVPGTSLTNQATGEVIYTPPAGESVIRDLLSNWEAFLHNQDDVDPLIKMAMAHYQFEAIHPFIDGNGRTGRVLNILYLIDQQLLSAPILYLSRYIVAHKQDYYRLLLNVTTQQEWQPWIIFILNAVEQTAKWTTHKIAAARELIAHTTEYVRQQLPKIYSHELVQVIFEQPYCRIQNLVESGLAKRQTASVYLKQLCDIGVLEEVQSGKEKLFVHPKFVTLMTKDSNQFSRYAL” as the sequence, how does the “soluble on expression in E. coli” value read?
Answer: not soluble

Question: With “AIAGIQAEQSPQNYFEGTVSQPSSRFSTTHKGLSGGYNLGLLVKMELQHSFIGKDNGISYLETKLSGFHHLPVIP” as the sequence, how does the “soluble on expression in E. coli” value read?
Answer: soluble
